The values below come from patent US20230250178A1 (published 2023).

The Kd is the constant that tells how readily two partners part at equilibrium. Read a high Kd as weaker binding. The term koff denotes the first-order rate constant of dissociation. Broadly, the kon is the rate constant with which the complex forms. Lower therefore signals slower complex formation. As usually defined, the EC50 is the concentration at which the effect is half-maximal. Low values mean an effect from little substance, high ones a need for much substance.

One assay deals with T1, human CCR8 (human, UniProt P51685 1-355).
T1 construct: also called hCCR8; P51685_CCR8_HUMAN
Briefly: FACS. A general note: A flow cytometer gives signals particle by particle.

In the next assay the target is T2, cynomolgus CCR8 (cynomolgus, UniProt O97665 1-356 (rhesus entry)).
T2 construct: also called cynoCCR8; G7NYJ2_CCR8_MACFA
Description: FACS.

Assay [1] concerns the target T3, TPP-19951, His6-tagged murine CCR8 TRD fused with human serum albumin (mouse; human, not fully specified).
T3 construct: non-sulfated TRD; also called CCR8-HSA fusion protein (mouse); not shown: human serum albumin (HSA), C-terminal fusion partner
T3 chain: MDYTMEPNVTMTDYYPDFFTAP
Description: SPR, IgG captured, TRD-HSA analyte. On the procedure:
IgGs were captured using anti-human Fc IgGs covalently amine coupled to a CM5 sensor chip. […] The respective CCR8-HSA fusion protein was used as analyte with a concentration range of 1.56-200 nM in multicycle kinetics mode. Obtained sensorgrams were fitted to a 1:1 Langmuir binding model.
(Surface plasmon resonance follows binding to a sensor surface in real time, without labels.)

The target of assay [2] is T4, murine CCR8 (mouse, UniProt P56484 1-353).
T4 construct: also called mCCR8; P56484_CCR8_MOUSE
T4 sequence: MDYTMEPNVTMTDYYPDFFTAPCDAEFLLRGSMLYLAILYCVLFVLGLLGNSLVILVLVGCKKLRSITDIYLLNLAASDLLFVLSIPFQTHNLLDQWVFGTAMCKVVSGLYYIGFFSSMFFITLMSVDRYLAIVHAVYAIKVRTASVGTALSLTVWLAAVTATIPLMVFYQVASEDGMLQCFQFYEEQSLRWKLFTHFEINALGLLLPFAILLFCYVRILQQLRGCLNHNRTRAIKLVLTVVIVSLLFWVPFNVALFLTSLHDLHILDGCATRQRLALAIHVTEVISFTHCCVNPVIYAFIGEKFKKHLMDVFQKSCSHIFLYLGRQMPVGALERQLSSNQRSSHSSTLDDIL
Briefly: FACS, CHO-mCCR8.

The target in assay [3] is T4, murine CCR8. Briefly: FACS, murine iTregs.
For the next assay, the target named is T5, HSA alone (human, UniProt P02768 25-609).
T5 construct: control analyte; also called human serum albumin
Description: SPR, IgG captured.

T2 sequence (O97665 other isoform, or with tags, fused parts or gaps): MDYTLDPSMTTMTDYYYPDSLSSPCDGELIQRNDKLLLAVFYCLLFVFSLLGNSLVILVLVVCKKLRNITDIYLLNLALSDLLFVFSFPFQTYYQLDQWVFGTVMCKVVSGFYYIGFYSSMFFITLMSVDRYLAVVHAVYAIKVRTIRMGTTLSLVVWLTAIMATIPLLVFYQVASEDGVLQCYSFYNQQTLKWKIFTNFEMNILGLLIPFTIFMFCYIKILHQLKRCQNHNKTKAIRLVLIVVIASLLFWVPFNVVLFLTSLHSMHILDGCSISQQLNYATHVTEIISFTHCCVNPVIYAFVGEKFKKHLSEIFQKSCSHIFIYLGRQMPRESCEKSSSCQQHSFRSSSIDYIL

B1: TPP-14099 (antibody, human IgG1, lambda, V domains shown)
VH: EVQLLESGGGLVQPGGSLRLSCAASGFTFSDYGVHWVRQAPGKGLEWVSGVSWNGSRTHYADSVKGRFTISRDNSKNTLYLQMNSLRAEDTAVYYCVTRGAWGQGTLVTVSS
VL: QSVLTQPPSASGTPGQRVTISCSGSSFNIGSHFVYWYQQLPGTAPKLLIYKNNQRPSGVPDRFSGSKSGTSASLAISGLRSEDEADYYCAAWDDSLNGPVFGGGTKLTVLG
notes: anti-murine CCR8, human IgG1 lambda; also called 497A-M005-F02-hIgG1Lambda
As to B1, the binding result in the assay with human CCR8, with cynomolgus CCR8 and in the assay with HSA alone was “no binding” each time. Further, the Kd in assay [1] came to 520 nM. The koff in assay [1] was found to be 0.0011 s⁻¹. Besides, the kon in assay [1] turned out to be 2200 M⁻¹ s⁻¹. The concentration giving a half-maximal response (EC50) was 3 nM with murine CCR8 [2] and 13.2 nM with murine CCR8 [3].
